Measurements taken from paper PMC10239968, “[^18F]AlF-NOTA-ADH-1: A new PET molecular radiotracer for imaging of N-cadherin-positive tumors” (Frontiers in Oncology, 2023).

Experiments:
in vivo [1] = format: in vivo, BALB/c nu/nu mice; conditions: female, BALB/c nu/nu, mouse, in vivo, iv, total radioactivity
Description: (§1) All animal experiments were performed in accordance with and approved by the Institutional Animal Care and Use Committee guidelines of the First Affiliated Hospital of Zhejiang University School of Medicine. BALB/c nu/nu mice (female, 20 ± 3 g, 4- to 6-week-old; Department of Laboratory Animal Science, Zhejiang University) were used in this study. The SW480 and BxPC3 xenografts were generated, and 5×10^6 tumor cells were subcutaneously injected into the flanks of female athymic nude mice. The PDX-bearing mouse models were established as follows. Pancreatic cancer (diagnosed as pancreatic ductal adenocarcinoma) tissues were obtained from the surgery of a patient. Written informed consent was obtained from the patient, and the research protocol was approved by the Clinical Research Ethics Committee of the First Affiliated Hospital of Zhejiang University School of Medicine. The sample was sectioned into about 1mm^3 pieces, and the tumor tissues were subcutaneously implanted into BALB/c nu/nu mice flanks. Mice were allowed free access to sterile water and food and were kept under strict disease-free conditions with controlled temperature (~25°C), humidity (50-70%), and circadian rhythms (12-hour light/dark cycles). All necessary procedures were carried out to minimize discomfort and avoid the waste of animals. The length and width of the tumor were measured every other day. Biodistribution studies and positron emission tomography in mice were performed after the tumor volume reached 150 to 200 mm^3.
(§2) The BALB/c nude mice were randomized into different tumor models (SW480, BxPC3, and pancreatic PDX), including 5 mice per group. Each nude mouse was injected with 0.74MBq (20μCi) [^18F]AlF-NOTA-ADH-1 through the caudal vein. Blood was collected from the orbit, and the mice were dissected to collect the brain, heart, lung, liver, liver, spleen, stomach, intestine, muscle, bone and others at 30 min, […], 60min, 90min and 120min after injection. In the blocked group, the study was performed with a saturating dose of ADH-1 (20 mg/kg of mouse body weight) intravenously administered 60min before the intravenous injection of [^18F]AlF-NOTA-ADH-1 in the pancreatic PDX model and SW480 xenograft model. The mice in the tumor xenograft model were sacrificed 1h after [^18F]AlF-NOTA-ADH-1 injection. The nude mice were dissected, and tumor tissues and related tissues (blood, brain, heart, lung, liver, spleen, kidney, stomach, intestine, muscle and bone) were weighed, and their radioactivity was measured by γ-counter. The radioactivity results were recorded as % ID/g.

BxPC3 tumor xenografts [2] = experiment: in vivo; format: in vivo, BALB/c nu/nu mice; conditions: for T/Blood ratio / T/Muscle ratio / Tumor uptake: BxPC3 xenograft nude mice, n=5, mean±SD
Description: as §1, §2

[3] = system: pancreatic PDX tumor xenografts; experiment: Micro-PET imaging, PDX tumor model; format: in vivo, nude mice; conditions: 60 min p.i.
Description: (§3) [^18F]AlF-NOTA-ADH-1 was evaluated by micro-PET imaging on nude mice bearing a PDX tumor, SW-480 and BxPC3 tumor xenografts. Each tumor-bearing nude mouse was injected with 3.7MBq [^18F]AlF-NOTA-ADH-1 via the tail vein. After being anesthetized with isoflurane, tumor-bearing nude mice were imaged using a micro-PET/CT scanner at 60 minutes post-injection under continuous isoflurane inhalation using a nasal mask with a connecting tube. Micro-PET/CT scanning was performed after low-dose 3D acquisition CT scanning at 10 minutes per bed. A blocking study was conducted, in which a saturating dose of unlabeled ADH-1 (20 mg/kg of mouse body weight) was intravenously administered 60 min before the intravenous injection of [^18F]AlF-NOTA-ADH-1.
(§4) The three-dimensional volume of interest (VOI) was used to assess the standard uptake value (SUV) of selected organs. The Seimens Inveon analysis software configured with micro-PET/CT was used to delineate the region of interest along the edge of the tumor and each normal tissue on the PET image. Subsequently, the SUV of each region of interest was measured, and the tumor/non-tumor ratio (T/NT) between the tumor and normal tissue was measured.

BxPC3 tumor xenografts [4] = experiment: Micro-PET imaging, BxPC3 tumor model; format: in vivo, nude mice; conditions: BxPC3-bearing tumor model mice, 60 min p.i.
Description: as §3, §4

in vivo [5] = experiment: in vivo; parameters: species or system BALB/c nu/nu mice; conditions: female, BALB/c nu/nu, mouse, in vivo, iv, 0.74 MBq (20 uCi) per mouse, total radioactivity
Description: as §1, §2

[6] = system: pancreatic PDX tumor xenografts; experiment: in vivo; parameters: species or system BALB/c nu/nu mice; conditions: PDX xenograft nude mice, n=5, mean±SD
Description: as §1, §2

[7] = 0.74 MBq (20 uCi) per mouse, Kidney uptake
[8] = blocking (ADH-1 20 mg/kg i.v. 60min before), 60min p.i.

CC(=O)N[C@H]1CSSC[C@@H](C(=O)NCCNC(=O)CN2CCN(CC(=O)O)CCN(CC(=O)O)CC2)NC(=O)[C@H](C(C)C)NC(=O)[C@H](C)NC(=O)[C@H](Cc2c[nH]cn2)NC1=O [[^18F]AlF-NOTA-ADH-1] showed a tissue uptake at 1 h (in vivo [1]; [7]) of 10.2 ± 0.47 %ID/g, a tissue uptake at 1.5 h (in vivo [1]; [7]) of 9.39 ± 0.75 %ID/g and a tissue uptake at 2 h (in vivo [1]; [7]) of 6.61 ± 0.87 %ID/g. The tissue uptake at 0.5 h (in vivo [1]; 0.74 MBq, Muscle uptake) was 1.03 ± 0.4 %ID/g, the tissue uptake at 0.5 h (in vivo [1]; 0.74 MBq, Pancreas uptake) was 0.23 ± 0.08 %ID/g and the tissue uptake at 1 h (in vivo [1]; 0.74 MBq, Pancreas uptake) was 0.61 ± 0.09 %ID/g. For the same molecule, the tissue uptake at 1.5 h (in vivo [1]; 0.74 MBq, Pancreas uptake) was 0.49 ± 0.23 %ID/g, the tissue uptake at 2 h (in vivo [1]; 0.74 MBq, Pancreas uptake) was 0.65 ± 0.11 %ID/g and the “Tumor tissue uptake” value (BxPC3 tumor xenografts [2]; BxPC3 tumor model) was “no significant uptake”. The T/Blood ratio (BxPC3 tumor xenografts [2]; 30min p.i.) was 3.18± 0.08, the T/Muscle ratio (BxPC3 tumor xenografts [2]; 30min p.i.) was 0.86±0.21 and the Tumor uptake (BxPC3 tumor xenografts [2]; 30min p.i.) was 0.89±0.12 %ID/g. The T/Blood ratio (BxPC3 tumor xenografts [2]; 60min p.i.) was 4.22±0.23, the T/Muscle ratio (BxPC3 tumor xenografts [2]; 60min p.i.) was 0.96±0.32 and the Tumor uptake (BxPC3 tumor xenografts [2]; 60min p.i.) was 1.07±0.36 %ID/g. For the same molecule, the T/Blood ratio (BxPC3 tumor xenografts [2]; 90min p.i.) was 5.45±0.10, the T/Muscle ratio (BxPC3 tumor xenografts [2]; 90min p.i.) was 0.66±0.19 and the Tumor uptake (BxPC3 tumor xenografts [2]; 90min p.i.) was 0.60±0.12 %ID/g. It also gave a T/Blood ratio (BxPC3 tumor xenografts [2]; 120min p.i.) of 1.42±0.13, a T/Muscle ratio (BxPC3 tumor xenografts [2]; 120min p.i.) of 0.63±0.23 and a Tumor uptake (BxPC3 tumor xenografts [2]; 120min p.i.) of 0.37±0.07 %ID/g. The Micro-PET tumor/muscle ratio ([3]; 3.7MBq i.v., SUV-based T/NT) was 8.069±2.832, the “Micro-PET T/Lung” value ([3]; printed in the sentence on blocking with unlabeled ADH-1 (group unclear)) was 5.062 ± 0.805 and the “Micro-PET T/Bone” value (BxPC3 tumor xenografts [4]) was 0.055 ± 0.022. The “Micro-PET T/Lung” value (BxPC3 tumor xenografts [4]) was 0.291 ± 0.195, the Micro-PET tumor/muscle ratio (BxPC3 tumor xenografts [4]) was 1.018 ± 0.498 and the tissue uptake at 0.5 h (in vivo [5]; Blood uptake) was 0.69 ± 0.22 %ID/g. It also gave a tissue uptake at 1 h (in vivo [5]; Blood uptake) of 0.4 ± 0.18 %ID/g, a tissue uptake at 1.5 h (in vivo [5]; Blood uptake) of 0.39 ± 0.11 %ID/g and a tissue uptake at 2 h (in vivo [5]; Blood uptake) of 0.41 ± 0.07 %ID/g. For the same molecule, the tissue uptake at 0.5 h (in vivo [5]; Bone uptake) was 1.74 ± 0.81 %ID/g, the tissue uptake at 1 h (in vivo [5]; Bone uptake) was 2.29 ± 0.96 %ID/g and the tissue uptake at 1.5 h (in vivo [5]; Bone uptake) was 1.65 ± 1.3 %ID/g. The tissue uptake at 2 h (in vivo [5]; Bone uptake) was 0.74 ± 0.35 %ID/g, the tissue uptake at 0.5 h (in vivo [5]; Brain uptake) was 0.62 ± 0.14 %ID/g and the tissue uptake at 1 h (in vivo [5]; Brain uptake) was 0.99 ± 0.47 %ID/g. For the same molecule, the tissue uptake at 1.5 h (in vivo [5]; Brain uptake) was 0.63 ± 0.18 %ID/g, the tissue uptake at 2 h (in vivo [5]; Brain uptake) was 0.51 ± 0.27 %ID/g and the tissue uptake at 0.5 h (in vivo [5]; Heart uptake) was 2.54 ± 0.97 %ID/g. For the same molecule, the tissue uptake at 1 h (in vivo [5]; Heart uptake) was 0.96 ± 0.17 %ID/g, the tissue uptake at 1.5 h (in vivo [5]; Heart uptake) was 0.95 ± 0.25 %ID/g and the tissue uptake at 2 h (in vivo [5]; Heart uptake) was 0.81 ± 0.28 %ID/g. For the same molecule, the tissue uptake at 0.5 h (in vivo [5]; Intestines uptake) was 3.82 ± 0.12 %ID/g, the tissue uptake at 1 h (in vivo [5]; Intestines uptake) was 2.14 ± 0.04 %ID/g and the tissue uptake at 1.5 h (in vivo [5]; Intestines uptake) was 3.93 ± 2.67 %ID/g. For the same molecule, the tissue uptake at 2 h (in vivo [5]; Intestines uptake) was 2.53 ± 2 %ID/g, the tissue uptake at 1 h (in vivo [5]; Muscle uptake) was 1.56 ± 0.07 %ID/g and the tissue uptake at 1.5 h (in vivo [5]; Muscle uptake) was 2.03 ± 0.05 %ID/g. It also gave a tissue uptake at 2 h (in vivo [5]; Muscle uptake) of 1.18 ± 0.6 %ID/g, a tissue uptake at 0.5 h (in vivo [5]; Skin uptake) of 0.11 ± 0.04 %ID/g and a tissue uptake at 1 h (in vivo [5]; Skin uptake) of 0.95 ± 0.46 %ID/g. It also gave a tissue uptake at 1.5 h (in vivo [5]; Skin uptake) of 1.51 ± 0.02 %ID/g, a tissue uptake at 2 h (in vivo [5]; Skin uptake) of 1.56 ± 0.66 %ID/g and a tissue uptake at 0.5 h (in vivo [5]; Stomach uptake) of 3.23 ± 1.69 %ID/g. The tissue uptake at 1 h (in vivo [5]; Stomach uptake) was 3.4 ± 0.12 %ID/g, the tissue uptake at 1.5 h (in vivo [5]; Stomach uptake) was 6.16 ± 1.58 %ID/g and the tissue uptake at 2 h (in vivo [5]; Stomach uptake) was 1.6 ± 1.04 %ID/g. For the same molecule, the T/Blood ratio [6, 8] was 9.39± 0.10, the T/Muscle ratio [6, 8] was 2.12±0.06 and the Tumor uptake [6, 8] was 3.75±0.07 %ID/g. For the same molecule, the T/Blood ratio ([6]; non-blocking, 30min p.i.) was 10.72± 1.02, the T/Muscle ratio ([6]; non-blocking, 30min p.i.) was 5.69±0.72 and the Tumor uptake ([6]; non-blocking, 30min p.i.) was 8.04±1.82 %ID/g. The T/Blood ratio ([6]; non-blocking, 60min p.i.) was 19.21± 2.20, the T/Muscle ratio ([6]; non-blocking, 60min p.i.) was 8.70±2.68 and the Tumor uptake ([6]; non-blocking, 60min p.i.) was 10.76±2.16 %ID/g. For the same molecule, the T/Blood ratio ([6]; non-blocking, 90min p.i.) was 13.54± 0.35, the T/Muscle ratio ([6]; non-blocking, 90min p.i.) was 4.15±1.86 and the Tumor uptake ([6]; non-blocking, 90min p.i.) was 7.18±0.53 %ID/g. For the same molecule, the T/Blood ratio ([6]; non-blocking, 120min p.i.) was 10.27±1.36, the T/Muscle ratio ([6]; non-blocking, 120min p.i.) was 3.97±1.56 and the Tumor uptake ([6]; non-blocking, 120min p.i.) was 4.93±1.65 %ID/g.
